From PMC13228514 (2026) come the findings set out here.

Broadly, the Kd is the equilibrium constant for the complex coming apart. Low values mean tighter binding, high ones weaker binding. For orientation: koff means the rate constant with which the complex falls apart.

Some targets named below: 39G7; 8D1; anti-LHFPL5.
Assay in all cases: BLI; intact antibody
On the technique in general: BLI is a label-free optical method that tracks binding on a fibre tip over time.

Sequence of 8D1 (Q99PJ1 27-1462): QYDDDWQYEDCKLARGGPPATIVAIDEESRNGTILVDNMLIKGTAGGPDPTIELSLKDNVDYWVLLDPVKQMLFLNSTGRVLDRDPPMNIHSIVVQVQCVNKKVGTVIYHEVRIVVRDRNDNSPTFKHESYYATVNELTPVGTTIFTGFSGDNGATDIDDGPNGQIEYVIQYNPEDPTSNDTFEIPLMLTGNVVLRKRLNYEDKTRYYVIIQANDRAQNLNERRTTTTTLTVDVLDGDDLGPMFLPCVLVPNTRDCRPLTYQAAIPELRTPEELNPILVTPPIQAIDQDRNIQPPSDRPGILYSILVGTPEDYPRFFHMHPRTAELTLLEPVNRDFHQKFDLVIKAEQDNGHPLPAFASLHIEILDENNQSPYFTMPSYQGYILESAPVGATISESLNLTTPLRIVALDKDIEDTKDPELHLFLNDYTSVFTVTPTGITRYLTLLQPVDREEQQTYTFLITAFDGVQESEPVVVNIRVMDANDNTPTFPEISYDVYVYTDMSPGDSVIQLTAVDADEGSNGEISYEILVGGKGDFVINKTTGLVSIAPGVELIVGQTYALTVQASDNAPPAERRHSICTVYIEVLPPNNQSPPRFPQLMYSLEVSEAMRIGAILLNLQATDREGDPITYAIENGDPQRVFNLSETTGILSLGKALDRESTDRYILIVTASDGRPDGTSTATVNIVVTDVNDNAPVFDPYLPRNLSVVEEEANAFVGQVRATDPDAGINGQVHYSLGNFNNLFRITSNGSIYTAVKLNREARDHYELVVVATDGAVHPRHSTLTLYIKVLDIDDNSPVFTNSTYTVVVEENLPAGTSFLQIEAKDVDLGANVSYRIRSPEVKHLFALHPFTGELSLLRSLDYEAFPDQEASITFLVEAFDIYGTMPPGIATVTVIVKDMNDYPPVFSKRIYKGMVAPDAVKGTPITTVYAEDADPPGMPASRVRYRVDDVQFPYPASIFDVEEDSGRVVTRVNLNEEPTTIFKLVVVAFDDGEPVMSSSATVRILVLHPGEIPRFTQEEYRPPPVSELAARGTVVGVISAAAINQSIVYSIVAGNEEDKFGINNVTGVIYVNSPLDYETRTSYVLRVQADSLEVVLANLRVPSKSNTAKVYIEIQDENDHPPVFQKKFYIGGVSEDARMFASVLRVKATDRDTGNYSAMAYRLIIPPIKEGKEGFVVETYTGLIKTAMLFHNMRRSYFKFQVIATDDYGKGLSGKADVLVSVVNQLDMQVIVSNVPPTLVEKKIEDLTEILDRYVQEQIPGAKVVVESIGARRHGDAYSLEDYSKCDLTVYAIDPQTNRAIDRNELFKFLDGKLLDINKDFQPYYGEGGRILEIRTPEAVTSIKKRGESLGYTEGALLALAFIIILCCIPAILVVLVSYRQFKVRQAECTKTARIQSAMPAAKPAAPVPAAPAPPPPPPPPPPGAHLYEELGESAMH
Sequence of 39G7 (Q99PJ1 27-1462): as above

B1: recombinant protocadherin-15 (PCDH15), residues 1-1462 (EC1-EC11 and part of the cytoplasmic region) (domain or fragment)
chain: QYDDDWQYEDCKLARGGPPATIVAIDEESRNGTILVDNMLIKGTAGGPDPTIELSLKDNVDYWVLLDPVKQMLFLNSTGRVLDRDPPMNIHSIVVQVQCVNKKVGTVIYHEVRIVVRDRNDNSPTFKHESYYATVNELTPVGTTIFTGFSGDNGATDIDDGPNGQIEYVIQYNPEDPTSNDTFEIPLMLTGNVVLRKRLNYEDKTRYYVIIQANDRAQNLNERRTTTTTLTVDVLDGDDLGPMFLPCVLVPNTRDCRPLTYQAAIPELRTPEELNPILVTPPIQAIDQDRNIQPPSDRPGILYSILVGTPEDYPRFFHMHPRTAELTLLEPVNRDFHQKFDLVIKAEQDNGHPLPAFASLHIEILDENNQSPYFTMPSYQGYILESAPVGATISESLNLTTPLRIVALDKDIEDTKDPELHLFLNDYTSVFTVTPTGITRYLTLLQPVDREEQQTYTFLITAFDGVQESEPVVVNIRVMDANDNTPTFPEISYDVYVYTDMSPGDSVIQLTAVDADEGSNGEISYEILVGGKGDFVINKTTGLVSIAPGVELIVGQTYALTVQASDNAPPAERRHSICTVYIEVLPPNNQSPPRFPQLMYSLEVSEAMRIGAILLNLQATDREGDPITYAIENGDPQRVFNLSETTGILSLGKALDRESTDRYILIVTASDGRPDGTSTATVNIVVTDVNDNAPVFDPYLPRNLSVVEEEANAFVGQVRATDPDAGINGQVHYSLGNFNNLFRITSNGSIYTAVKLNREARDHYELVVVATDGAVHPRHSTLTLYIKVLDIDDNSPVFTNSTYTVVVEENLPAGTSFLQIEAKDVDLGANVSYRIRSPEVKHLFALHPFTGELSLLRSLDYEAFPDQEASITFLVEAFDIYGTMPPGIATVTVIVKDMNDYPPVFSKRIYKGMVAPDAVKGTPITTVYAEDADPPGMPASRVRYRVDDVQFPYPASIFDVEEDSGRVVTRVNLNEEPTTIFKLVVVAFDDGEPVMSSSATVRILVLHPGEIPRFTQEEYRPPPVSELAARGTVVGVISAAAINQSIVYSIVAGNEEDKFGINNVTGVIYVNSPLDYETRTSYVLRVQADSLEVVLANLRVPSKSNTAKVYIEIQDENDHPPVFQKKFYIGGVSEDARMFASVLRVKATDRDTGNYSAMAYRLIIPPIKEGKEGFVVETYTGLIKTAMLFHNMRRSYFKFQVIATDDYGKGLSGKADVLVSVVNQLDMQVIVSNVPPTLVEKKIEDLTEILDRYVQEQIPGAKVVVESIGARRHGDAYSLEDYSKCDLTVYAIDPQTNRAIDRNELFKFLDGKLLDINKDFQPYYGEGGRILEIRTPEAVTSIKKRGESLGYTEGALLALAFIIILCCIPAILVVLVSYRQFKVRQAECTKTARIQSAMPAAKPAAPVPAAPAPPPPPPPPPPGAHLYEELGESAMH
For the molecule B1, in the assay with 39G7, the Kd amounted to 0.2 nM and the koff came to 2e-05 s⁻¹. In the assay with 8D1, the Kd amounted to 0.05 nM and the dissociation rate constant (koff) was determined as 3e-05 s⁻¹.

B2: recombinant lipoma HMGIC fusion partner-like protein 5 (LHFPL5), residues 2-219 (natural protein)
chain: VKLLPAQEAAKIYHTNYVRNSRAVGVMWGTLTICFSVLVMALFIQPYWIGDSVSTPQAGYFGLFSYCVGNVLSSELICKGGPLDFSSIPSRAFKTAMFFVALAMFLIIGSIICFSLFFVCNTATVYKICAWMQLAAATGLMIGCLVYPDGWDSSEVRRMCGEQTGKYTLGHCTIRWAFMLAILSIGDALILSFLAFVLGYRQDKLLPDDYKADGNEEV
Take B2: in the assay with anti-LHFPL5, the Kd was found to be 1 nM and the dissociation rate constant (koff) stood at 5e-05 s⁻¹.
